B1: STK38L (parent)
chain: FCIDSENRIGNSGVEEIKGHPFFE
B2: INTS3 (parent)
chain: EEITEESLEESVGKPLYLIFRNLC

Variants of: B1
Assay: protein stability index of a GFP-peptide fusion (GPS, HEK-293T) (PSI 1-6); higher = more stable
Conditions: c terminus: a fixed tail appended
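Further: lentivirally expressed fusions sorted by FACS into six bins by GFP to DsRed ratio, PSI derived from sequencing read proportions per bin multiplied by bin number.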

Variant	protein stability index
FCIDSENRIGNSGVEEIKGHHFFE [P21H]	2.89
FCIDSENRIGNSGVEEIKGHKFFE [P21K]	2.84
FCIDSENRIGNSGVEEIKGHDFFE [P21D]	4.22
FCIDSENRIGNSGVEEIKGHIFFE [P21I]	2.46
FCIDSENRIGNSGVEEIKGHCFFE [P21C]	2.07
FCIDSENRIGNSGVEEIKGHGFFE [P21G]	2.54
FCIDSENRIGNSGVEEIKGHAFFE [P21A]	2.72
FCIDSENRIGNSGVEEIKGHNFFE [P21N]	3.13
FCIDSENRIGNSGVEEIKGHRFFE [P21R]	2.97
FCIDSENRIGNSGVEEIKGHEFFE [P21E]	3.52
FCIDSENRIGNSGVEEIKGHSFFE [P21S]	3.73
FCIDSENRIGNSGVEEIKGHFFFE [P21F]	1.7
FCIDSENRIGNSGVEEIKGHVFFE [P21V]	2.28
FCIDSENRIGNSGVEEIKGHLFFE [P21L]	1.42
FCIDSENRIGNSGVEEIKGHMFFE [P21M]	1.94
FCIDSENRIGNSGVEEIKGHWFFE [P21W]	1.9
FCIDSENRIGNSGVEEIKGHYFFE [P21Y]	2.25
FCIDSENRIGNSGVEEIKGHTFFE [P21T]	2.91
FCIDSENRIGNSGVEEIKGHQFFE [P21Q]	2.99
FCIDSENRIGNSGVEEFKGHPFFE [I17F]	2.36
FCIDSENRIGNSGVEERKGHPFFE [I17R]	2.1
FCIDSENRIGNSGVEEKKGHPFFE [I17K]	2.35
FCIDSENRIGNSGVEEQKGHPFFE [I17Q]	2.53
FCIDSENRIGNSGVEEMKGHPFFE [I17M]	2.79

Variant	protein stability index
FCIDSENRIGNSGVEEDKGHPFFE [I17D]	3.1
FCIDSENRIGNSGVEEWKGHPFFE [I17W]	1.67
FCIDSENRIGNSGVEESKGHPFFE [I17S]	3.17
FCIDSENRIGNSGVEEGKGHPFFE [I17G]	2.38
FCIDSENRIGNSGVEEPKGHPFFE [I17P]	2.54
FCIDSENRIGNSGVEEHKGHPFFE [I17H]	2.16
FCIDSENRIGNSGVEENKGHPFFE [I17N]	2.88
FCIDSENRIGNSGVEEYKGHPFFE [I17Y]	2.18
FCIDSENRIGNSGVEETKGHPFFE [I17T]	3.17
FCIDSENRIGNSGVEECKGHPFFE [I17C]	2.84
FCIDSENRIGNSGVEEEKGHPFFE [I17E]	3.47
FCIDSENRIGNSGVEELKGHPFFE [I17L]	2.61
FCIDSENRIGNSGVEEIKGHPFSE [F23S]	1.93
FCIDSENRIGNSGVEEIKGHPFWE [F23W]	2.02
FCIDSENRIGNSGVEEIKGHPFPE [F23P]	4.07
FCIDSENRIGNSGVEEIKGHPFAE [F23A]	1.78
FCIDSENRIGNSGVEEIKGHPFTE [F23T]	1.46
FCIDSENRIGNSGVEEIKGHPFME [F23M]	1.07
FCIDSENRIGNSGVEEIKGHPFRE [F23R]	1.72
FCIDSENRIGNSGVEEIKGHPFDE [F23D]	4.86
FCIDSENRIGNSGVEEIKGHPFKE [F23K]	2.19
FCIDSENRIGNSGVEEIKGHPFCE [F23C]	1.8
FCIDSENRIGNSGVEEIKGHPFLE [F23L]	2.52
FCIDSENRIGNSGVEEIKGHPFNE [F23N]	4.2

Variant	protein stability index
FCIDSENRIGNSGVEEIKGHPFVE [F23V]	1.85
FCIDSENRIGNSGVEEIKGHPFYE [F23Y]	3.35
FCIDSENRIGNSGVEEIKGHPFHE [F23H]	2.69
FCIDSENRIGNSGVEEIKGHPFIE [F23I]	2.47
FCIDSENRIGNSGVEEIKGHPGFE [F22G]	4.37
FCIDSENRIGNSGVEEIKGHPDFE [F22D]	5.23
FCIDSENRIGNSGVEEIKGHPYFE [F22Y]	2.42
FCIDSENRIGNSGVEEIKGHPAFE [F22A]	3.58
FCIDSENRIGNSGVEEIKGHPNFE [F22N]	4.5
FCIDSENRIGNSGVEEIKGHPHFE [F22H]	4.33
FCIDSENRIGNSGVEEIKGHPLFE [F22L]	3.74
FCIDSENRIGNSGVEEIKGHPRFE [F22R]	4.21
FCIDSENRIGNSGVEEIKGHPEFE [F22E]	4.79
FCIDSENRIGNSGVEEIKGHPCFE [F22C]	3.81
FCIDSENRIGNSGVEEIKGHPIFE [F22I]	3.65
FCIDSENRIGNSGVEEIKGHPKFE [F22K]	4.49
FCIDSENRIGNSGVEEIKGHPQFE [F22Q]	3.1
FCIDSENRIGNSGVEEIKGHPVFE [F22V]	4.11
FCIDSENRIGNSGVEEIKGHPPFE [F22P]	4.32
FCIDSENRIGNSGVEEIKGHPTFE [F22T]	4.5
FCIDSENRIGNSGVEEIKRHPFFE [G19R]	1.63
FCIDSENRIGNSGVEEIKYHPFFE [G19Y]	1.99
FCIDSENRIGNSGVEEIKWHPFFE [G19W]	2.27
FCIDSENRIGNSGVEEIKHHPFFE [G19H]	2.13

Variant	protein stability index
FCIDSENRIGNSGVEEIKPHPFFE [G19P]	1.99
FCIDSENRIGNSGVEEIKTHPFFE [G19T]	2.19
FCIDSENRIGNSGVEEIKAHPFFE [G19A]	2.15
FCIDSENRIGNSGVEEIKEHPFFE [G19E]	3.45
FCIDSENRIGNSGVEEIKVHPFFE [G19V]	2.09
FCIDSENRIGNSGVEEIKCHPFFE [G19C]	1.68
FCIDSENRIGNSGVEEIKKHPFFE [G19K]	2.16
FCIDSENRIGNSGVEEIKMHPFFE [G19M]	1.67
FCIDSENRIGNSGVEEIKIHPFFE [G19I]	1.54
FCIDSENRIGNSGVEEIKQHPFFE [G19Q]	2.37
FCIDSENRIGNSGVEEIKNHPFFE [G19N]	2.68
FCIDSENRIGNSGVEEIKDHPFFE [G19D]	3.21
FCIDSENRIGNSGVEEIKSHPFFE [G19S]	2.43
FCIDSENRIGNSGVEEIKFHPFFE [G19F]	1.8
FCIDSENRIGNSGVEEIKLHPFFE [G19L]	1.87
FCIDSENRIGNSGVQEIKGHPFFE [E15Q]	1.57
FCIDSENRIGNSGVYEIKGHPFFE [E15Y]	1.92
FCIDSENRIGNSGVSEIKGHPFFE [E15S]	1.96
FCIDSENRIGNSGVMEIKGHPFFE [E15M]	2.51
FCIDSENRIGNSGVREIKGHPFFE [E15R]	2.08
FCIDSENRIGNSGVNEIKGHPFFE [E15N]	1.64
FCIDSENRIGNSGVPEIKGHPFFE [E15P]	1.98
FCIDSENRIGNSGVTEIKGHPFFE [E15T]	2.08
FCIDSENRIGNSGVVEIKGHPFFE [E15V]	2.52

Variant	protein stability index
FCIDSENRIGNSGVEEIMGHPFFE [K18M]	1.65
FCIDSENRIGNSGVEEIEGHPFFE [K18E]	3.07
FCIDSENRIGNSGVEEINGHPFFE [K18N]	2.8
FCIDSENRIGNSGVEEITGHPFFE [K18T]	2.6
FCIDSENRIGNSGVEEIDGHPFFE [K18D]	4.12
FCIDSENRIGNSGVEEIGGHPFFE [K18G]	2.36
FCIDSENRIGNSGVEEIYGHPFFE [K18Y]	2.16
FCIDSENRIGNSGVEEIFGHPFFE [K18F]	2.12
FCIDSENRIGNSGVEEIWGHPFFE [K18W]	2.47
FCIDSENRIGNSGVEEILGHPFFE [K18L]	2.89
FCIDSENRIGNSGVEEIQGHPFFE [K18Q]	2.2
FCIDSENRIGNSGVEEISGHPFFE [K18S]	3
FCIDSENRIGNSGVEEIPGHPFFE [K18P]	3.07
FCIDSENRIGNSGVEEIHGHPFFE [K18H]	2.34
FCIDSENRIGNSGVEEIVGHPFFE [K18V]	2.63
FCIDSENRIGNSGVEEIAGHPFFE [K18A]	2.48
FCIDSENRIGNSGVEEICGHPFFE [K18C]	2.82
FCIDSENRIGNSGVEEIIGHPFFE [K18I]	2.31
FCIDSENRIGNSGVETIKGHPFFE [E16T]	2.35
FCIDSENRIGNSGVEGIKGHPFFE [E16G]	2.67
FCIDSENRIGNSGVECIKGHPFFE [E16C]	2.23
FCIDSENRIGNSGVEAIKGHPFFE [E16A]	3.21
FCIDSENRIGNSGVEDIKGHPFFE [E16D]	1.89
FCIDSENRIGNSGVERIKGHPFFE [E16R]	2.3

Variant	protein stability index
FCIDSENRIGNSGVEPIKGHPFFE [E16P]	2.42
FCIDSENRIGNSGVEVIKGHPFFE [E16V]	1.87
FCIDSENRIGNSGVEWIKGHPFFE [E16W]	1.44
FCIDSENRIGNSGVEIIKGHPFFE [E16I]	1.55
FCIDSENRIGNSGVEKIKGHPFFE [E16K]	1.98
FCIDSENRIGNSGVEQIKGHPFFE [E16Q]	2.54
FCIDSENRIGNSGVENIKGHPFFE [E16N]	2.06
FCIDSENRIGNSGVEYIKGHPFFE [E16Y]	1.51
FCIDSENRIGNSGVEFIKGHPFFE [E16F]	2.25
FCIDSENRIGNSGVESIKGHPFFE [E16S]	1.85
FCIDSENRIGNSGVEHIKGHPFFE [E16H]	2.22
FCIDSENRIGNSGVELIKGHPFFE [E16L]	1.79
FCIDSENRIGNSGVEMIKGHPFFE [E16M]	2.28
FCIDSENRIGNSGVEEIKGHPFFS [E24S]	2.15
FCIDSENRIGNSGVEEIKGHPFFQ [E24Q]	1.75
FCIDSENRIGNSGVEEIKGHPFFY [E24Y]	1.69
FCIDSENRIGNSGVEEIKGHPFFG [E24G]	1.59
FCIDSENRIGNSGVEEIKGHPFFT [E24T]	1.21
FCIDSENRIGNSGVEEIKGHPFFI [E24I]	2.72
FCIDSENRIGNSGVEEIKGHPFFK [E24K]	1.72
FCIDSENRIGNSGVEEIKGHPFFP [E24P]	2.01
FCIDSENRIGNSGVEEIKGHPFFM [E24M]	1.45
FCIDSENRIGNSGVEEIKGHPFFW [E24W]	1.61
FCIDSENRIGNSGVEEIKGHPFFA [E24A]	1.92

Variant	protein stability index
FCIDSENRIGNSGVEEIKGHPFFF [E24F]	1.74
FCIDSENRIGNSGVEEIKGHPFFN [E24N]	2.19
FCIDSENRIGNSGVEEIKGHPFFH [E24H]	1.54
FCIDSENRIGNSGVEEIKGHPFFD [E24D]	2.24
FCIDSENRIGNSGVEEIKGHPFFL [E24L]	4
FCIDSENRIGNSGVEEIKGHPFFC [E24C]	2.7
FCIDSENRIGNSGVEEIKGHPFFV [E24V]	1.71
FCIDSENRIGNSGVEEIKGVPFFE [H20V]	3.19
FCIDSENRIGNSGVEEIKGQPFFE [H20Q]	3.48
FCIDSENRIGNSGVEEIKGCPFFE [H20C]	1.54
FCIDSENRIGNSGVEEIKGRPFFE [H20R]	2.35
FCIDSENRIGNSGVEEIKGAPFFE [H20A]	3.79
FCIDSENRIGNSGVEEIKGEPFFE [H20E]	4.12
FCIDSENRIGNSGVEEIKGPPFFE [H20P]	3.45
FCIDSENRIGNSGVEEIKGLPFFE [H20L]	2.69
FCIDSENRIGNSGVEEIKGDPFFE [H20D]	2.53
FCIDSENRIGNSGVEEIKGNPFFE [H20N]	2.67
FCIDSENRIGNSGVEEIKGYPFFE [H20Y]	2.47
FCIDSENRIGNSGVEEIKGGPFFE [H20G]	3.09
FCIDSENRIGNSGVEEIKGIPFFE [H20I]	2.95
FCIDSENRIGNSGVEEIKGKPFFE [H20K]	3.41
FCIDSENRIGNSGVEEIKGTPFFE [H20T]	3.83
FCIDSENRIGNSGVEEIKGMPFFE [H20M]	2.71
FCIDSENRIGNSGVEEIKGFPFFE [H20F]	2.62

Variants of: B2
Assay: as above
Conditions: c terminus: a fixed tail appended

Variant	protein stability index
EAITEESLEESVGKPLYLIFRNLC [E2A]	1.98
YEITEESLEESVGKPLYLIFRNLC [E1Y]	2.3
NEITEESLEESVGKPLYLIFRNLC [E1N]	2.88
IEITEESLEESVGKPLYLIFRNLC [E1I]	2.22
VEITEESLEESVGKPLYLIFRNLC [E1V]	2.31
SEITEESLEESVGKPLYLIFRNLC [E1S]	2.58
CEITEESLEESVGKPLYLIFRNLC [E1C]	2.29
PEITEESLEESVGKPLYLIFRNLC [E1P]	2.27
REITEESLEESVGKPLYLIFRNLC [E1R]	2.2
HEITEESLEESVGKPLYLIFRNLC [E1H]	2.67
WEITEESLEESVGKPLYLIFRNLC [E1W]	2.52
MEITEESLEESVGKPLYLIFRNLC [E1M]	2.45
LEITEESLEESVGKPLYLIFRNLC [E1L]	2.46
KEITEESLEESVGKPLYLIFRNLC [E1K]	2.51
GEITEESLEESVGKPLYLIFRNLC [E1G]	2.69
AEITEESLEESVGKPLYLIFRNLC [E1A]	3.14
QEITEESLEESVGKPLYLIFRNLC [E1Q]	3.06
DEITEESLEESVGKPLYLIFRNLC [E1D]	2.68
TEITEESLEESVGKPLYLIFRNLC [E1T]	2.6
FEITEESLEESVGKPLYLIFRNLC [E1F]	1.8
